Measurements taken from patent publication US20170145086A1 (VISTERRA, published 2017).
“And” between values parts separate entries of the source, which are not always exact repeats. Equal values may be shown once.

T1: HA-GCN4 hAPRIL (amino acid residues 105-250) (human, UniProt O75888 105-250)
T1 construct: Bought (R&D Systems); also called HA-tagged GCN4 human APRIL; HA-GCN4-huAPRIL; not shown: N-terminal HA tag; GCN4 isoleucine zipper oligomerization domain
T1 sequence: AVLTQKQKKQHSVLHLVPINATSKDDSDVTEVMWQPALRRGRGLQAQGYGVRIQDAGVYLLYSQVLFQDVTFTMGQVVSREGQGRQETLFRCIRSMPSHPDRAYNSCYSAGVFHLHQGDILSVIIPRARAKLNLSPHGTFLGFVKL

T2: HA-GCN4 mAPRIL (amino acid residues 96-241) (mouse, UniProt Q9D777 96-241, Assembles as a homotrimer through the GCN4 zipper; one protomer is given.)
T2 construct: Bought (R&D Systems); also called HA-tagged mouse APRIL (R&D Systems); recombinant mouse APRIL; not shown: N-terminal HA tag and GCN4 isoleucine-zipper trimerisation domain, with any linker, of the bought R&D Systems protein
T2 sequence: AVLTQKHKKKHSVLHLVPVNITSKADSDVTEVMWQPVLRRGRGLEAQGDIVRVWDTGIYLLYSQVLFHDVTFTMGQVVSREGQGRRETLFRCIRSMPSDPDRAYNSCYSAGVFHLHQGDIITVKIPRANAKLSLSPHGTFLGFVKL

B1: monoclonal antibody 2419-1406 (antibody, V domains shown)
VH: QVQLVQSGAEVKKPGASVKVSCKASGYTFTDYTIHWVRQATGQGLEWMGWIYPLRGSINYAQKFQGRVTMTADKSISTVYMELSSLRSEDTAVYFCARHGAYYSNAFDYWGQGTLVTVSS
VL: EIVMTQSPATLSVSPGERATLSCRASESVDNDGIRFLHWYQQKPGQAPRLLIYRASTRATGIPARFSGSGSRTEFTLTISSLQSEDFAVYYCQQSNKDPYTFGGGTKVEIK
B2: monoclonal antibody 2922 (antibody, mouse IgG2, V domains shown)
VH: QVQLHQSGPELVKPGASVKLSCKTSGYTFTSYDVFWVKQRPGQGLEWIGWIYPRDSSTKYNEKFKGKATLTVDTSSSTAYMELHSLTSEDSAVYFCAKEGYDYDKRGFDYWGQGTTLTVSS
VL: DIVLTQSPASLAVSLGQRAIISCKASQSVSFAGTNLMHWYQQRPGQQPKLLIYRASNLEPGVPTRFSGSGSRTDFTLNIHPVEEDDAATYYCQQSREYPWTFGGGTKLEIK
B3: monoclonal antibody 2621 (antibody, mouse IgG2, V domains shown)
VH: EVQLQQSGAELVRPGSSVKMSCKTSGYTFTSYGINWVKQRPGQGLEWIGYIYIGNGYAEYNERFKGKATLTSDTSSSTAYMQLSSLTSEDSAIYFCALYYPWFTYWGQGTLVTVSA
VL: DIQMTQSPASLSASVGDSVTITCRASENIYSYLAWYQQKQGKSPQLLVYNAKTLAEGVPSRFSGSGSGTQFSLKINSLQPEDFGNYYCQHHYDTPFTFGGGTKLEIK
B4: monoclonal antibody 4035-062 (antibody, IgG1, V domains shown)
VH: QVQLQESGPGLVKPSETLSLTCTVSGFSLTIYDVHWVRQPPGKGLEWIGVIWSDGSTDYNPSLKSRVTISKDTSKNQVSLKLSSVTAADTAVYYCARNWVDQAWFAYWGQGTLVTVSS
VL: DIQMTQSPSSLSASVGDRVTITCRASKNIYSYLAWYQQKPGKAPKLLVYNAKTLPEGVPSRFSGSGSGTDFTLTISSLQPEDFATYYCQHHYGTPLTFGQGTKLEIK
B5: monoclonal antibody 3125 (antibody, mouse IgG2, V domains shown)
VH: QVQLQQSGAELVRPGASVTLSCKASGYTFTDYEMHWVKQTPVHGLEWIGAIDPETGGTAYNQRFKGKAILTTDKSSITAYMELRSLTSEDSAVYYCTRWNDGDYWGQGTTLTVSS
VL: DVVMTQTPLSLSVTIGQPASISCKSSQSLLYSNGKTYLNWFQQRPGQSPKRLMYQVSKLDPGIPDRFSGSGSETDFTLKISRVEAEDLGLYYCLQGTYYPYTFGGGTKLEIK
B6: monoclonal antibody 3525 (antibody, mouse IgG2, V domains shown)
VH: QVQLQQSGAELVRPGASVKLSCKASGYTFTDHEMHWVRQTPVHGLEWIGVIDPDTGDTTYNQKFKGKATLTADKSSSTAYMDLRSLTSEDSAVFYCTRWTGGDYWGHGTTLTVSS
VL: DVVMTQTPLSLSVTIGQPASISCKSSQSLLYSNGKTYLNWFQQRPGQSPKRLMYQVSKLDPGIPDRFSGSGSETDFTLKISRVEAEDLGLYYCLQGTYYPYTFGGGTKLEIK

Assays:
[1] = molecular target: T1, HA-GCN4 hAPRIL (amino acid residues …); experiment: blocking ELISA; blocked: human APRIL binding to TACI-Fc
[2] = molecular target: T1, HA-GCN4 hAPRIL (amino acid residues …); experiment: ELISA on trimeric (GCN4-stabilised) human APRIL
Excerpt: APRIL trimer was stabilized by the N-terminal fusion of APRIL with an isoleucine zipper (GCN4) oligomerization domain Binding of APRIL to human TACI-Fc is shown for comparative purposes.

[3] = molecular target: T1, HA-GCN4 hAPRIL (amino acid residues …); experiment: indirect ELISA on human APRIL
[4] = molecular target: T1, HA-GCN4 hAPRIL (amino acid residues …); experiment: blocking ELISA; blocked: human APRIL binding to BCMA-Fc
Experimental: (§1) Recombinant TACI-Fc or BCMA-Fc was coated on 96 well plates in 0.1 M carbonate-bicarbonate buffer (pH 9.6), overnight at 4° C. Plates were washed three times with 1×PBST (PBS+0.025% Tween 20) followed by blocking with 1% BSA in 1×PBS, 37° C. for 1 hour. All subsequent wash steps were carried out with 1×PBST. To assess antibody blocking, either 15 ng/mL or 50 ng/mL HA-GCN4-huAPRIL was preincubated with varying antibody concentrations ranging from 0.03-30 μg/mL in binding buffer comprised of 1% BSA and 0.025% Tween-20 in 1×PBS. Preincubation was carried out at 30° C. for 1 hour with mixing. Antibody-APRIL premix with 50 ng/mL APRIL or 15 ng/mL APRIL was then added to TACI-Fc coated or BCMA-Fc coated plates, respectively, and incubated for an additional hour at 30° C. HA-tagged APRIL binding to either receptor was quantified using a goat polyclonal anti-HA tag-HRP antibody (Abcam) added at a 1:10000 dilution followed by colorimetric development using 100 μl/well of freshly prepared TMB substrate (KPL) carried out for up to 30 minutes at room temperature before quenching enzymatic reaction by the addition of 1N sulfuric acid. ELISA signal was quantified by absorbance at 450 nm. ELISA data was analyzed by non-linear regression. IC₅₀ values were calculated based on a 4 parameter fit of antibody titration curves. […] Non-blocking antibodies Aprly-1 or Aprly-5 (Enzo Biosciences) were used as negative controls. Mouse specific, blocking antibody aprily-1-1 (Adipogen) was generally used as a positive control in experiments using mouse APRIL (HA-GCN4-mAPRIL).
Assay is based on receptor blocking ELISA using recombinant human APRIL (R&D Systems) and either human TACI-Fc (FIG. 30A) or BCMA-Fc (FIG. 30B).

[5] = molecular target: T1, HA-GCN4 hAPRIL (amino acid residues …); experiment: competition ELISA: antibody titrated against human APRIL, read-out APRIL bound to coated human TACI-Fc
Experimental: Mouse specific antibody Apry-1-1 (Adipogen) was likewise used for quantification of antibody binding to mouse APRIL.
Recombinant TACI-Fc or BCMA-Fc was coated on 96 well plates in 0.1 M carbonate-bicarbonate buffer (pH 9.6), overnight at 4° C. Plates were washed three times with 1×PBST (PBS+0.025% Tween 20) followed by blocking with 1% BSA in 1×PBS, 37° C. for 1 hour. All subsequent wash steps were carried out with 1×PBST. To assess antibody blocking, either 15 ng/mL or 50 ng/mL HA-GCN4-huAPRIL was preincubated with varying antibody concentrations ranging from 0.03-30 μg/mL in binding buffer comprised of 1% BSA and 0.025% Tween-20 in 1×PBS. Preincubation was carried out at 30° C. for 1 hour with mixing. […] HA-tagged APRIL binding to either receptor was quantified using a goat polyclonal anti-HA tag-HRP antibody (Abcam) added at a 1:10000 dilution followed by colorimetric development using 100 μl/well of freshly prepared TMB substrate (KPL) carried out for up to 30 minutes at room temperature before quenching enzymatic reaction by the addition of 1N sulfuric acid. ELISA signal was quantified by absorbance at 450 nm. ELISA data was analyzed by non-linear regression. IC₅₀ values were calculated based on a 4 parameter fit of antibody titration curves. […]

[6] = molecular target: T1, HA-GCN4 hAPRIL (amino acid residues …); experiment: blocking ELISA; blocked: human APRIL binding to human BCMA-Fc; parameters: concentration or dose not given beside the values
Experimental: as §1

[7] = molecular target: T1, HA-GCN4 hAPRIL (amino acid residues …); experiment: blocking ELISA; blocked: human APRIL binding to human TACI-Fc; parameters: concentration or dose not given beside the values
Experimental: as §1

[8] = molecular target: T1, HA-GCN4 hAPRIL (amino acid residues …); experiment: indirect ELISA on HA-GCN4 human APRIL, 3-parameter fit
Experimental: FIG. 5 depicts the binding of anti-APRIL antibodies to human APRIL. Relative binding of select anti-APRIL antibodies was measured by indirect ELISA. Select antibodies based on prior hybridoma screening were recombinantly produced (based on immunoglubin VH and VL gene sequencing) as described. HA-tagged GCN4 human APRIL R&D Systems was used as source of APRIL. Binding data was analyzed by non-linear regression using a three parameter fit.
(§2) Purified antibodies were further characterized for APRIL binding, APRIL species cross reactivity (human APRIL vs. mouse APRIL), and receptor blocking activity using TACI-Fc. For binding, an APRIL-based indirect ELISA was used to determine by first approximation the relative affinity of purified anti-APRIL antibodies to either human APRIL or mouse APRIL. ELISA method was as generally described above. […] Blocking and wash steps were completed as described. Binding of anti-APRIL antibodies to APRIL was quantified using an 8 point dilution of test antibody that spanned over a four log scale. Antibody binding to APRIL was detected using a rabbit anti-mouse IgG (H+L)-HRP conjugate (Jackson ImmunoResearch Laboratories). Antibody binding data was analyzed by non-linear regression analysis using a 3 parameter fit to determine max binding and apparent EC₅₀ values. […] Mouse specific antibody Apry-1-1 (Adipogen) was likewise used for quantification of antibody binding to mouse APRIL.

[9] = molecular target: T1, HA-GCN4 hAPRIL (amino acid residues …); experiment: blocking ELISA, 4-parameter fit; blocked: human APRIL binding to human BCMA-Fc
Experimental: as §1

[10] = molecular target: T1, HA-GCN4 hAPRIL (amino acid residues …); experiment: blocking ELISA, 4-parameter fit; blocked: human APRIL binding to human TACI-Fc
Experimental: as §1

[11] = molecular target: T1, HA-GCN4 hAPRIL (amino acid residues …); experiment: indirect ELISA on coated HA-GCN4 human APRIL; EC50 from non-linear regression
Excerpt: as §2

[12] = molecular target: T1, HA-GCN4 hAPRIL (amino acid residues …); experiment: cell-based or functional assay
[13] = molecular target: T2, HA-GCN4 mAPRIL (amino acid residues …); experiment: blocking ELISA; blocked: mouse APRIL binding to human BCMA-Fc
Experimental: Recombinant TACI-Fc or BCMA-Fc was coated on 96 well plates in 0.1 M carbonate-bicarbonate buffer (pH 9.6), overnight at 4° C. Plates were washed three times with 1×PBST (PBS+0.025% Tween 20) followed by blocking with 1% BSA in 1×PBS, 37° C. for 1 hour. All subsequent wash steps were carried out with 1×PBST. To assess antibody blocking, either 15 ng/mL or 50 ng/mL HA-GCN4-huAPRIL was preincubated with varying antibody concentrations ranging from 0.03-30 μg/mL in binding buffer comprised of 1% BSA and 0.025% Tween-20 in 1×PBS. Preincubation was carried out at 30° C. for 1 hour with mixing. Antibody-APRIL premix with 50 ng/mL APRIL or 15 ng/mL APRIL was then added to TACI-Fc coated or BCMA-Fc coated plates, respectively, and incubated for an additional hour at 30° C. HA-tagged APRIL binding to either receptor was quantified using a goat polyclonal anti-HA tag-HRP antibody (Abcam) added at a 1:10000 dilution followed by colorimetric development using 100 μl/well of freshly prepared TMB substrate (KPL) carried out for up to 30 minutes at room temperature before quenching enzymatic reaction by the addition of 1N sulfuric acid. ELISA signal was quantified by absorbance at 450 nm. ELISA data was analyzed by non-linear regression. IC₅₀ values were calculated based on a 4 parameter fit of antibody titration curves. […]

Binder	IC50 [1] [nM]	Relative Activity (normalised to 2419) [1]	EC50 [2] [nM]	EC50 [3] [pM]	IC50 [4] [nM]	Relative Activity (normalised to 2419) [4]	IC50 [5] [nM]	% Inhibition [6] [%]	% Inhibition [7] [%]	EC50 [8]	IC50 [9] [nM]	IC50 [10] [nM]	EC50 [11] [nM]	IC50 (inhibition of APRIL-mediated BCMA NFκB signaling) [12] [nM]	IC50 (inhibition of APRIL-mediated TACI NFκB signaling) [12] [nM]	IC50 (read off the curve) [13] [µg/mL]
B1	0.24	0.88	0.0384	3.34	0.11	0.47	–	–	–	–	–	–	–	–	–	–
B2	–	–	–	–	–	–	> 10	97	97	0.0713 µg/mL and 0.482 nM	22	31.6	–	–	–	–
B3	–	–	–	–	–	–	–	0	79	0.0143 µg/mL and 0.097 nM	–	1	< 0.2	–	–	–
B4	0.26	0.93	0.0135	1.28	0.1	0.41	–	–	–	–	–	–	–	~0.38	~1.02	–
B5	–	–	–	–	–	–	> 10	< 10	52	0.281 µg/mL and 1.9 nM	–	113	> 1	–	–	–
B6	–	–	–	–	–	–	–	48	86	0.0534 µg/mL and 0.361 nM	0.85	4.05	–	–	–	~0.3
